# Test results from publication PMC6470140 (Nature Communications, 2019).
# Target: synthetic peptide representing residues 620-635 of the BDBV GP2 stalk epitope (Bundibugyo virus)
# Assay: crystal structure
# Settings: both partners purified
binder,measurement,value
"BDBV223 Fab (Fab, V domains shown) VH: QVQLQQWGAGLLKPSETLSLTCAVYGGSFTTTYWNWIRQPPGKGLEWIGEVNYSGNANYNPSLKGRVAISVDTSKNQFSLRLNSVTAADTAIYYCTSRIRSHIAYSWKGDVWGKGTTVTVSS VL: EIVMTQSPGTLSLSPGERATLSCRASQSVPRNYIGWFQQKPGQAPRLLIYGASSRAAGFPDRFSGSGSGTDFTLTITRLEPEDFAMYYCHQYDRLPYTFGQGTKLEIK",binding result,binds
